Experimental data reported in patent US20200399712A1, “COMPOSITIONS AND METHODS FOR THE DIAGNOSIS AND DETECTION OF TUMORS AND CANCER PROGNOSIS” (priority 2018, published 2020).
“Also recorded” adds a separate entry of the source. Marks after values point to notes of the source that are not given here.

Key:
HPV-16 genome = assay: qPCR sensitivity against HPV-16 copy number (known-copy HPV-16 DNA among 10 ng normal human DNA); details: for reaction under 10 copies of HPV-16 genome / reaction under 30 copies of HPV-16 genome: among 10 ng normal DNA, triplicate qPCR
HPV-16 [1] = assay: qPCR on 20 ng DNA from saliva samples of HPV-HNSCC patients
Method: All samples were run in triplicates.
The sensitivity of detection from saliva 20 ng DNA samples is 32.1% (9/28) in E6 primer-probe sets, 42.9% (12/28) in E7 primer-probe sets, 35.7% (10/28) in “Min-5” primer-probe sets, 46.4% (13/28) in “Max-10” primer-probe sets. The sensitivity of combination of “5” and “10” is 50% (14/28) and that of E6 and E7 is 42.9% (12/28). By the standard curve analysis, the copy numbers that detected by “Max-10” primer-probe sets were the highest in these 4 primer-probe sets. The slope of standard curve is −3.5 in “Min-5” primer-probe sets when delta Rn is plotted against cycle threshold (FIG. 5).

HPV16 DNA [2] = assay: CLIA test for HPV16, performance characteristics in plasma
Text: (§1) These primer/probe sets were adapted for development of a CLIA test for HPV16 DNA detection in plasma and salivary rinses (Table 2). Test performance was improved, so that analytical sensitivity in salivary rinse spike in assays ranges from 2.5-5.0 DNA copies/mL with 100% specificity for the three primer/probe sets that are now part of the component assay, resulting in a five-fold improvement in analytic sensitivity that is in the range of sensitivity found in sequence based liquid biopsy methods (FIG. 23, Table 2). Additionally, the assays can be used quantitatively, with measuring ranges between 2.0 log10-7.0 log10 copies/mL.

HPV16 DNA [3] = assay: CLIA test for HPV16, performance characteristics in salivary rinse
Text: as §1

HPV DNA = assay: CLIA HPV test pilot study on saliva rinse samples from HPV-positive HNSCC patients and non-cancer controls; set-up: species or system HPV16; HPV16 DNA measured by CLIA HPV test: unit not given here
Method: As a final validation, Applicants a small pilot study was performed on a blinded set of saliva rinse samples from 28 patients with HPV-positive HNSCC and 15 salivary rinses from non-cancer controls. […] The sensitivity increased to 96% when all three sets were used (Table 3).

HPV-16 [4] = assay: qPCR sensitivity against HPV-HNSCC tumor samples diluted among 10 ng normal human DNA
Method: Quantitative real-time polymerase chain reaction (qRT-PCR) was used to examine the threshold in each experiment. qRT-PCR was performed using Quant Studio 6 Flex Real-Time PCR System (Thermo Fisher Scientific). All samples were run in triplicates. HPV-16 viral amplicon copy number estimations were developed using the CaSki cell line. After amplification of the amplicon by PCR, DNA concentration was calculated by weight NanoDrop®, then converted to DNA copy number by calculation based on the molecular weight of the double stranded amplicon. […] In the other 32 HPV-HNSCC cohort, Applicants diluted the tumor sample to 990 pg, 198 pg, 99 pg, 39.6 pg, 7.9 pg, 3.2 pg, and 1.6 pg of amount tumor weight, (correspond to 150, 30, 15, 6, 1.2, 0.6, and 0.3 cells: assumption that 1 tumor cell have 6.6 pg DNA (=3*10^9 (human DNA genome bp)*2 (diploid)*1.67*10^(−24) g (weight/Dalton))) combined with 10 ng normal leukocyte human DNA and compare the threshold of each primer-probe sets.
In this regard, Applicants investigated the other 32 HPV-HNSCC tumor samples. From the assumption that 1 cell tumor DNA contain 6.6 pg DNA, Applicants made the dilution series by DNA derived from normal lymphocyte as described and decide the threshold for each primer-probe set.
Furthermore, to determine whether these designed primer/probe sets also have a high sensitivity in a separate cohort, Applicants performed PCR in a validation cohort of 32 additional primary tumor samples with validated presence of HPV-16. Applicants prepared serial of dilutions of tumor DNA in normal lymphocyte DNA from non-cancer individuals and determined the threshold for each primer/probe set and defined amplification thresholds expressed in number of tumor cells for each sample (Table 5).

[5] = samples tested 3 times, 10 ng DNA from healthy individual
[6] = first template ('... HPV16', word is an image)
[7] = second template (name is an image)
[8] = tumor DNA dilution, fraction of 32 samples

B1: BR E1-5: HPV-16 E1 region primer/probe set, SEQ ID NO: 40-42 (same as SEQ ID NO: 1-3) (nucleic acid)
DNA 1: GCACAATTGGCAGACACTAAT
DNA 2: GCACAATCCTTTACAATTTTTGCC
DNA 3: AGTAATGCAAGTGCCTTTCTAAAAAGTAATTC
modifications: chemistry not given here
reaction under 10 copies of HPV-16 genome (HPV-16 genome): consistent detection | reaction under 30 copies of HPV-16 genome (HPV-16 genome): consistently amplified | reaction under 10 copies of HPV-16 genome (HPV-16 genome; listed as Min-5): consistently triplicate reaction; also recorded: could detect | reaction under 30 copies of HPV-16 genome (HPV-16 genome; listed as Min-5): react consistently | number of reactions against 10 HPV-16 copies (HPV-16 genome; [5]): 3 reactions | number of reactions under 30 HPV-16 copies (HPV-16 genome; [5]): 3 reactions | sensitivity of detection from saliva 20 ng DNA samples (HPV-16 [1]; 28 HPV-HNSCC saliva samples): 35.7% | slope of standard curve (delta Rn plotted against cycle threshold) (HPV-16 [1]; RT-PCR, 20 ng DNA from HPV-HNSCC saliva samples (FIG. 5)): −3.5 | Accuracy - Plasma Blind Panel, Negative % Agreement (HPV16 DNA [2]): 100% | Accuracy - Plasma Blind Panel, Positive % Agreement (HPV16 DNA [2]): 100% | Accuracy - Plasma Blind Panel, Total % Agreement (HPV16 DNA [2]): 100% | Measuring Range - Plasma (HPV16 DNA [2]; first template ('... HPV16')): 2.0-8.5 log10 log10 copies/mL | Limit of Detection - Plasma (HPV16 DNA [2]; [6]): 1.5 copies/mL | Limit of Detection - Plasma (HPV16 DNA [2]; [7]): 22 copies/mL | Measuring Range - Plasma (HPV16 DNA [2]; [7]): 2.0-6.5 log10 log10 copies/mL | Measuring Range - Salivary Rinse (HPV16 DNA [3]; first template ('... HPV16')): 2.0-8.5 log10 log10 copies/mL | Limit of Detection - Salivary rinse (HPV16 DNA [3]; [6]): 3 copies/mL | Limit of Detection - Salivary rinse (HPV16 DNA [3]; [7]): 12 copies/mL | Measuring Range - Salivary Rinse (HPV16 DNA [3]; [7]): 2.0-6.5 log10 log10 copies/mL | sensitivity for the detection of HPV DNA in saliva rinse samples (HPV DNA; 28 patients with HPV-positive HNSCC): 79% | HPV16 DNA measured by CLIA HPV test (HPV DNA; saliva sample from HPV-HNSCC patient # 1): 866000 | HPV16 DNA measured by CLIA HPV test (HPV DNA; saliva sample from HPV-HNSCC patient # 2): 118000 | HPV16 DNA measured by CLIA HPV test (HPV DNA; saliva sample from HPV-HNSCC patient # 3): 47600 | HPV16 DNA measured by CLIA HPV test (HPV DNA; saliva sample from HPV-HNSCC patient # 4): 104000 | HPV16 DNA measured by CLIA HPV test (HPV DNA; saliva sample from HPV-HNSCC patient # 7): 9790 | HPV16 DNA measured by CLIA HPV test (HPV DNA; saliva sample from HPV-HNSCC patient # 8): 3590 | HPV16 DNA measured by CLIA HPV test (HPV DNA; saliva sample from HPV-HNSCC patient # 9): 2600 | HPV16 DNA measured by CLIA HPV test (HPV DNA; saliva sample from HPV-HNSCC patient # 12): 127 | HPV16 DNA measured by CLIA HPV test (HPV DNA; saliva sample from HPV-HNSCC patient # 13): 290 | HPV16 DNA measured by CLIA HPV test (HPV DNA; saliva sample from HPV-HNSCC patient # 14): 114 | HPV16 DNA measured by CLIA HPV test (HPV DNA; saliva sample from HPV-HNSCC patient # 15): 160 | HPV16 DNA measured by CLIA HPV test (HPV DNA; saliva sample from HPV-HNSCC patient # 16): 121 | HPV16 DNA measured by CLIA HPV test (HPV DNA; saliva sample from HPV-HNSCC patient # 17): 67.4 | HPV16 DNA measured by CLIA HPV test (HPV DNA; saliva sample from HPV-HNSCC patient # 18): 15.8 | HPV16 DNA measured by CLIA HPV test (HPV DNA; saliva sample from HPV-HNSCC patient # 19): 61.1 | HPV16 DNA measured by CLIA HPV test (HPV DNA; saliva sample from HPV-HNSCC patient # 20): 30.9 | HPV16 DNA measured by CLIA HPV test (HPV DNA; saliva sample from HPV-HNSCC patient # 21): 25.7 | HPV16 DNA measured by CLIA HPV test (HPV DNA; saliva sample from HPV-HNSCC patient # 22): 2.68 | HPV16 DNA measured by CLIA HPV test (HPV DNA; saliva sample from HPV-HNSCC patient # 23): 1.82 | HPV16 DNA measured by CLIA HPV test (HPV DNA; saliva sample from HPV-HNSCC patient # 24): 14.4 | HPV16 DNA measured by CLIA HPV test (HPV DNA; saliva sample from HPV-HNSCC patient # 25): 2.76 | HPV16 DNA measured by CLIA HPV test (HPV DNA; saliva sample from HPV-HNSCC patient # 27): 2.17 | sensitivity under 100 cells (HPV-16 [4]; 32 HPV-HNSCC tumor samples): 96.9% | sensitivity under single cells (HPV-16 [4]; 32 HPV-HNSCC tumor samples, 6.6 pg DNA): 28.1% | sensitivity under 10 cells (HPV-16 [4]; 32 HPV-HNSCC tumor samples, 66 pg DNA): 68.7% | Threshold of tumor cell numbers for HPV-16 detection (HPV-16 [4]; Sample # 1): 60.0 tumor cells | Threshold of tumor cell numbers for HPV-16 detection (HPV-16 [4]; Sample # 2): 150.0 tumor cells | Threshold of tumor cell numbers for HPV-16 detection (HPV-16 [4]; Sample # 3): 30.0 tumor cells | Threshold of tumor cell numbers for HPV-16 detection (HPV-16 [4]; Sample # 4): 6.0 tumor cells | Threshold of tumor cell numbers for HPV-16 detection (HPV-16 [4]; Sample # 5): 6.0 tumor cells | Threshold of tumor cell numbers for HPV-16 detection (HPV-16 [4]; Sample # 6): 15.0 tumor cells | Threshold of tumor cell numbers for HPV-16 detection (HPV-16 [4]; Sample # 7): 30.0 tumor cells | Threshold of tumor cell numbers for HPV-16 detection (HPV-16 [4]; Sample # 8): 30.0 tumor cells | Threshold of tumor cell numbers for HPV-16 detection (HPV-16 [4]; Sample # 9): 1.2 tumor cells | Threshold of tumor cell numbers for HPV-16 detection (HPV-16 [4]; Sample # 10): 6.0 tumor cells | Threshold of tumor cell numbers for HPV-16 detection (HPV-16 [4]; Sample # 11): 30.0 tumor cells | Threshold of tumor cell numbers for HPV-16 detection (HPV-16 [4]; Sample # 12): 30.0 tumor cells | Threshold of tumor cell numbers for HPV-16 detection (HPV-16 [4]; Sample # 13): 6.0 tumor cells | Threshold of tumor cell numbers for HPV-16 detection (HPV-16 [4]; Sample # 14): 6.0 tumor cells | Threshold of tumor cell numbers for HPV-16 detection (HPV-16 [4]; Sample # 15): 6.0 tumor cells | Threshold of tumor cell numbers for HPV-16 detection (HPV-16 [4]; Sample # 16): 6.0 tumor cells | Threshold of tumor cell numbers for HPV-16 detection (HPV-16 [4]; Sample # 17): 1.2 tumor cells | Threshold of tumor cell numbers for HPV-16 detection (HPV-16 [4]; Sample # 18): 0.2 tumor cells | Threshold of tumor cell numbers for HPV-16 detection (HPV-16 [4]; Sample # 19): 1.2 tumor cells | Threshold of tumor cell numbers for HPV-16 detection (HPV-16 [4]; Sample # 20): 3.0 tumor cells | Threshold of tumor cell numbers for HPV-16 detection (HPV-16 [4]; Sample # 21): 0.6 tumor cells | Threshold of tumor cell numbers for HPV-16 detection (HPV-16 [4]; Sample # 22): 0.3 tumor cells | Threshold of tumor cell numbers for HPV-16 detection (HPV-16 [4]; Sample # 23): 1.2 tumor cells | Threshold of tumor cell numbers for HPV-16 detection (HPV-16 [4]; Sample # 24): 0.6 tumor cells | Threshold of tumor cell numbers for HPV-16 detection (HPV-16 [4]; Sample # 25): 0.3 tumor cells | Threshold of tumor cell numbers for HPV-16 detection (HPV-16 [4]; Sample # 26): 0.6 tumor cells | Threshold of tumor cell numbers for HPV-16 detection (HPV-16 [4]; Sample # 27): 0.6 tumor cells | Threshold of tumor cell numbers for HPV-16 detection (HPV-16 [4]; Sample # 28): 0.6 tumor cells | Threshold of tumor cell numbers for HPV-16 detection (HPV-16 [4]; Sample # 29): 1.0 tumor cells | Threshold of tumor cell numbers for HPV-16 detection (HPV-16 [4]; Sample # 30): 15.0 tumor cells | Threshold of tumor cell numbers for HPV-16 detection (HPV-16 [4]; Sample # 31): 0.6 tumor cells | Threshold of tumor cell numbers for HPV-16 detection (HPV-16 [4]; Sample # 32): 15.0 tumor cells | Sensitivity, 1 cell (HPV-16 [4]; [8]): 0.281* | Sensitivity, 3 cells (HPV-16 [4]; [8]): 0.438 | Sensitivity, 10 cells (HPV-16 [4]; [8]): 0.688 | Sensitivity, 30 cells (HPV-16 [4]; [8]): 0.938* | Sensitivity, 100 cells (HPV-16 [4]; [8]): 0.969*
